Assay results: patent publication US20120282637A1 (Sanofi, published 2012)
Several values for one entry are separate records, joined by “and”; a condition that tells them apart may be missing. Equal entries are not always repeated.

Legend:
RAGE V domain = target: T1, RAGE V domain (UniProt Q15109 23-121, limits assumed); assay: domain mapping, Table 1
T1 construct: domain: V domain

RAGE V-C1 domains = target: T2, RAGE V-C1 domains (UniProt Q15109 23-233, limits assumed); assay: domain mapping, Table 1
T2 construct: domain: V-C1 domains

[1] = target: T3, sRAGE (V-C1-C2) lot LP08062 (human, UniProt Q15109 23-331, limits assumed); assay: SPR (Biacore), mAb captured on anti-mouse Fc, sRAGE 15 nM, Langmuir 1:1
T3 construct: domain: V-C1-C2; also called Human RAGE; LP08062 (Rage)
Protocol: The assay is based on a capture assay using immobilized anti-mouse Fc IgG on CM5 chip. For immobilization of anti-Fc antibody HBS-EP was used as running buffer. Standard amine coupling to a CM5 chip was carried out at a contact time of 11 min and a flow rate of 10 μl/min. 10 mM Sodium Acetate pH 5.0 was used as immobilization buffer. The protein concentration (anti-mouse Fc, Biacore BR-1008-38) was 100 μg/mL.
For binding analysis SN anti-RAGE mAb diluted in running buffer at 1/10 (flow rate 5 μl/min) and sRAGE (V-C1-C2) lot LP08062 diluted in running buffer at 15 nM (flow rate 50 μl/min) was used as […], respectively (running buffer: HBS-P+BSA 12 mg/mL+CM Dextran 12 mg/mL and Regeneration solution: 10 mM Glycine pH 1.7). Langmuir 1:1 analysis was used as fitting model.

RAGE C2 domain = target: T4, RAGE C2 domain (UniProt Q15109 235-327, limits assumed); assay: domain mapping, Table 1
T4 construct: domain: C2 domain

RAGE-Fc [2] = target: T5, RAGE-Fc (human, UniProt Q15109 23-344, limits assumed); assay: competition ELISA, hRAGE-S100B interaction
T5 construct: also called hRAGE; not shown: Fc part, detected with anti-hIgG Fc-specific conjugate

RAGE-Fc [3] = target: T5, RAGE-Fc; assay: competition ELISA, RAGE-S100B interaction
rat sRAGE = rat sRAGE (rat, UniProt Q63495 23-341, limits assumed); assay: ELISA, O.D. 450 nm, one bar per species; plate format and antibody concentration not given
mouse sRAGE = mouse sRAGE (mouse, UniProt Q62151 23-340, limits assumed); assay: as above
RAGE-Fc [4] = target: T5, RAGE-Fc; assay: competition ELISA, hRAGE-HMGB1 interaction
RAGE-Fc [5] = target: T5, RAGE-Fc; assay: competition ELISA, RAGE-HMGB1 interaction
RAGE-Fc [6] = target: T5, RAGE-Fc; assay: competition ELISA, RAGE-S100A6 interaction
RAGE-Fc [7] = target: T5, RAGE-Fc; assay: competition ELISA, RAGE-Fc binding to coated S100A6
Protocol: (§1) For the S100A6 Competition ELISA Assay wells have been coated with S100A6 at 0.5 μg/well. Thereafter, RAGE-Fc at 10 μg/mL and competing mAb at 10 μg/mL have been pre-incubated at room temperature for 30 min. The mixture was transferred into S100A6-coated plates and incubated under agitation at room temperature for 2 hours. Bound RAGE-Fc was detected with anti-hIgG Fc-specific-POD using TMB (3, 3′, 5, 5′-Tetramethylbenzidine) at 450 nm.
For this, coating with S100A6 was carried out as detailed above. RAGE-Fc at 10 μg/mL was incubetd with competing mAb (2-fold serial dilutions starting at 100 μg/ml at room temperature for 2 hours. Binding was detected by anti IgG Fc-specific antibody peroxydase conjugate using TMB1 component HRP at 450 nm.

RAGE-Fc [8] = target: T5, RAGE-Fc; assay: competition ELISA, hRAGE-S100A6 interaction
RAGE-Fc [9] = target: T5, RAGE-Fc; assay: competition ELISA against S100A6, mAb 10 µg/mL
Protocol: as §1

Chain of rat sRAGE (Q63495 23-341 limits assumed): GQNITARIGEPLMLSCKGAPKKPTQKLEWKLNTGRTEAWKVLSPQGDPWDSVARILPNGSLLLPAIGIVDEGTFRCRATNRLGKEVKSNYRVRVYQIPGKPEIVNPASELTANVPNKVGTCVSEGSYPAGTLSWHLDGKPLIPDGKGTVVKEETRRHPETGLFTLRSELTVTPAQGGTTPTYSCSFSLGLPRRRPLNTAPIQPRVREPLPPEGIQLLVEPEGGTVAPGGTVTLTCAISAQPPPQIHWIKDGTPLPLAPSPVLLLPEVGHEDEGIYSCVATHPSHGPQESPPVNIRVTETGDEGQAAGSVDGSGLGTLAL
T1 sequence (Q15109 23-121 limits assumed): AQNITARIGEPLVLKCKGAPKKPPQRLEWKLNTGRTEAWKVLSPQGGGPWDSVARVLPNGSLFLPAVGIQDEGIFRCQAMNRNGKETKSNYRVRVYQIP
T4 sequence (Q15109 235-327 limits assumed): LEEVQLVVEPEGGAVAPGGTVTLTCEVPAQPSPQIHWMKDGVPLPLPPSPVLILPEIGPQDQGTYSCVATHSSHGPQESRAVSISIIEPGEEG
T3 sequence (Q15109 23-331 limits assumed): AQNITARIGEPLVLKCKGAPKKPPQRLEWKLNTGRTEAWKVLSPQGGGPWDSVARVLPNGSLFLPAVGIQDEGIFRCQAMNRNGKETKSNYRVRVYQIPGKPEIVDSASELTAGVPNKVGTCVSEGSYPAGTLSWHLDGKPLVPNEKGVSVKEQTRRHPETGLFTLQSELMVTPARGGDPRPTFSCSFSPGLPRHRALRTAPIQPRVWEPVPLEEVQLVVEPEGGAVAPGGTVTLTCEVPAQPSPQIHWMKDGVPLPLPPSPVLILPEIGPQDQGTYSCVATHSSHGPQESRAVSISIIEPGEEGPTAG
Chain of mouse sRAGE (Q62151 23-340 limits assumed): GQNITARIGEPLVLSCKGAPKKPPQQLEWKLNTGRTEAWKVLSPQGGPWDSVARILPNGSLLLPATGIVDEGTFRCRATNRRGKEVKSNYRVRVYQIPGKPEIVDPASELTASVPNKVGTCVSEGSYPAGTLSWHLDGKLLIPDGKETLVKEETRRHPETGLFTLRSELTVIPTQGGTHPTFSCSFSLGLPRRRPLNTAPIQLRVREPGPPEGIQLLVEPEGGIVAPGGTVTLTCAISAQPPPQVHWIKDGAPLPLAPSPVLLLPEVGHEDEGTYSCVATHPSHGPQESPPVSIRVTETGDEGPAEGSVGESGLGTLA
T5 sequence (Q15109 23-344 limits assumed): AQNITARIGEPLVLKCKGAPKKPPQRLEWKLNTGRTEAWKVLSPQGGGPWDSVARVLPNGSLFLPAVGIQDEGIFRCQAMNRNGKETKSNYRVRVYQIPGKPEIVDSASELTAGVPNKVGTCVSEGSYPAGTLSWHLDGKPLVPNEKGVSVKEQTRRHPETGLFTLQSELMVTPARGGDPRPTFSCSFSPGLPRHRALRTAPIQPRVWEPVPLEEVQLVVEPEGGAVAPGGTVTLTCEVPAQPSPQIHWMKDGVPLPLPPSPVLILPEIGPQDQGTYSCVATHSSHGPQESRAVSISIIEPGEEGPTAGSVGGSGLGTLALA
T2 sequence (Q15109 23-233 limits assumed): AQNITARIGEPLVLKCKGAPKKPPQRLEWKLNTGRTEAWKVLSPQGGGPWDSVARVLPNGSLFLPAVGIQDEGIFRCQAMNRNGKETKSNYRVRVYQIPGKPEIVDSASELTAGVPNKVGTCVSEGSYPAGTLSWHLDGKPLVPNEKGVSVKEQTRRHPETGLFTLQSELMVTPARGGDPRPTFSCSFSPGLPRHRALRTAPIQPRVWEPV

Binder	binding result (RAGE V domain)	binding result (RAGE V-C1 domains)	Kd [1]	koff [1]	kon [1]	binding result (RAGE C2 domain)	IC50 (RAGE-Fc [2])	IC50 (RAGE-Fc [3])	binding result (rat sRAGE)	binding result (mouse sRAGE)	IC50 (RAGE-Fc [4])	IC50 (RAGE-Fc [5])	IC50 (RAGE-Fc [6])	IC50 (RAGE-Fc [7])	maximum inhibitory effect (RAGE-Fc [8])	inhibitory effect (RAGE-Fc [9])
164 RAGE-1 (antibody, V domains shown, Anti-RAGE monoclonal antibody from a hybridoma, captured by anti-mouse Fc; also called LP08106; Protein 164 RAGE-1) VH: not shown VL: NIVMTQSPKSMSMSVGERVTLSCKASENVGTYVSWYQQKPEQSPKLLIYGASNRYTGVPDRFTGSGSATDFTLTISSVQAEDLADYHCGQSYTYPYTFGGGTKLEIK	no binding	no binding	1.13 nM	0.00203 s⁻¹	1.8e+06 M⁻¹ s⁻¹											
326 RAGE-1 (antibody, V domains shown, Anti-RAGE monoclonal antibody from a hybridoma, captured by anti-mouse Fc; also called LP08137; Protein 326 RAGE-1) VH: EVKLVESGGGLVKPGGSLKLSCAASGFAFSSYDMSWVRQTPEKRLEWVATISSGGSYTSYPDSVQGRFTISRDNARNTLYLQMSSLRSEDTALYYCASSQLPPYAMDYWGQGTSVTVSS VL: DIVMTQSQKFMSTSVGDRVSITCKASQNVGTAVAWYQQKPGQSPKLLIYSASNRYTGVPDRFTGSGSGTDFTLTISNMQSEDLADYFCQQYSSYPLLTFGAGTKLELK	no binding		0.596 nM	0.00171 s⁻¹	2.87e+06 M⁻¹ s⁻¹	no binding	0.097 µg/mL and 0.64 nM	0.6 nM	no binding (tested: not given)	no binding (tested: not given)						
Control XT-M4 (antibody, V domains shown) VH: EVQLVESGGGLVQPGRSLKLSCVVSGFTFNNYWMTWIRQTPGKGLEWVASINNSGDNTYYPDSVKDRFTISRDNAKSTLYLQMNSLRSEDTATYYCTRGGDITTGFDYWGQGVMVTVSS VL: DIQMTQSPSSMSVSLGDTITITCRASQDVGIYVNWFQQKPGKSPRRMIYRATNLADGVPSRFSGSRSGSIYSLTISSLESEDVADYHCLEFDEHPLTFGSGTKVEIK							0.208 µg/mL	1.37 nM			0.272 µg/mL	1.79 nM	34.6 nM	5.2 µg/mL		
158 RAGE-1 (antibody, V domains shown, Anti-RAGE monoclonal antibody from a hybridoma, captured by anti-mouse Fc; also called LP08105) VH: QIQLVQSGPELKKPGETVKISCKASGYTFTDYSMHWVKQAPGKGLKWMGWINTETGEPTYADDFKGRFAFSLETSASTAYLLINNLKTEDTATYFCARDYLYYYAMDYWGQGTSVTVSS VL: DVVLTQTPLSLPVNIGDQASISCKSTKSLLNSDGFTYLDWYLQKPGQSPQLLIYLVSNRFSGVPDRFSGSGSGTDFTLKISRVEAEDLGVYYCFQSNYLPLTFGGGTKVEIK			0.629 nM	0.00253 s⁻¹	4.02e+06 M⁻¹ s⁻¹	no binding	0.109 µg/mL	0.7 nM	no binding (tested: not given)	no binding (tested: not given)	0.29 µg/mL and 1.39 nM	1.4 nM	45.3 nM	6.79 µg/mL	≤ 50%	> 20%
240 RAGE-1 (antibody, V domains shown, Anti-RAGE monoclonal antibody from a hybridoma, captured by anti-mouse Fc; also called LP08108) VH: QIQLVQSGPELKKPGETVKISCKASGYTFTDYSMHWVKQAPGKGLKWMGWINTETGEPTYADDFKGRFAFSLETSASTAYLQINNLKNEDTATYFCARDYLYYYAMDYWGQGTSVTVSS VL: DVVLTQTPLSLPVSIGDQASISCKSTKSLLNSDGFTYLDWYLQKPGQSPQLLIYLVSNRFSGVPDSFSGSGSGTDFTLKISRVEAEDLGVYYCFQSNYFPLTFGGGTTLEIK			0.222 nM	0.000769 s⁻¹	3.47e+06 M⁻¹ s⁻¹	no binding	0.123 µg/mL	0.8 nM	no binding (tested: not given)	no binding (tested: not given)	0.31 µg/mL and 2.06 nM	2.1 nM	44.4 nM	6.66 µg/mL	≤ 50%	> 20%
253 RAGE-1 (antibody, V domains shown, Anti-RAGE monoclonal antibody from a hybridoma, captured by anti-mouse Fc; also called LP08127) VH: QVQLQQSGPELVKPGASVRISCKASGYTFTDYYIHWVKQRPGQGLEWIGWIYPGNVITKYNEKFKGKATLTADKSSSTAYMQLSSLTSEDSAVYFCARYDYDYAMDYWGQGTSVTVSS VL: DIVMSQSPSSLAVSVGEKVTMSCKSSQTLLYSSNQKNYLAWYQQKPGQSLKLLIYWASTRESGVPDRFAGSGSGTDFTLTISSVKAEDLAVYYCQQYFGYPYTFGGGTKLEIK	no binding		0.512 nM	0.00199 s⁻¹	3.89e+06 M⁻¹ s⁻¹	no binding	0.108 µg/mL	0.7 nM								
56 RAGE-1 (antibody, V domains shown, Anti-RAGE monoclonal antibody from a hybridoma, captured by anti-mouse Fc; also called LP08103; Protein 56 RAGE-1) VH: QVQLQQSGPELVKPGASVRISCKASGYTFTSYFIHWVKQRPGQGLEWIGWIYPGNVNTKYNEKFKDKATLTADKSSSTAYMQLSNLTSEDSAVYFCVRGQLGDYWGQGITLTVSS VL: DIVMTQSQKFMSTSVGDRVSVTCKASQNVGINVAWYQQKPGQSPKALIYSASYRYSGVPDRFTGSGSGTDFTLIISNVQSEDLAEYFCQQYNNYPRTFGGGTKLEIK	no binding	no binding	1.87 nM	0.00539 s⁻¹	2.89e+06 M⁻¹ s⁻¹								7.7 nM	1.16 µg/mL and 7.73 nM	≤ 50%	> 20%
166 RAGE-1 (antibody, V domains shown, Anti-RAGE monoclonal antibody from a hybridoma, captured by anti-mouse Fc; also called LP08122; LP08122D) VH: QVQLQQSGPELVKPGTSVRISCKASGYTFTSYYIHWVKQRPGQGLEWIGWIYPGNVITNYHEKFKGKASLTADKSSSTAYMQLSSLTSEDSAVYFCAREDPFAYWGQGTLVTVSA VL: NIMMTQSPSSLAVSAGEKVTMSCKSSQSVLYSSNQKNYLAWYQQKPGQSPKLLIYWASTRESGVPDRFTGSGSGTDFTLTISSVQAEDLAVYYCHQYLSSYTFGGGTKLEIK	no binding		0.234 nM	0.000758 s⁻¹	3.24e+06 M⁻¹ s⁻¹	no binding	0.128 µg/mL	0.8 nM	no binding (tested: not given)	no binding (tested: not given)			55.5 nM	8.33 µg/mL	≤ 50%	> 20%
